Results taken from patent US20210198360 (published 2021).

T1: mouse PD-L2-Fc (mouse, UniProt Q9WUL5)
T1 chain: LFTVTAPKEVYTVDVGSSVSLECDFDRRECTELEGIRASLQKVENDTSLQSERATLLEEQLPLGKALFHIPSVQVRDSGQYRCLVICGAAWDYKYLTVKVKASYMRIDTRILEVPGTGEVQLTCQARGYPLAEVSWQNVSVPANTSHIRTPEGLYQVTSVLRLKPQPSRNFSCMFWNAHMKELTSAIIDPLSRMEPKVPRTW

T2: human PD-L2-Fc (human, UniProt Q9BQ51)
T2 chain: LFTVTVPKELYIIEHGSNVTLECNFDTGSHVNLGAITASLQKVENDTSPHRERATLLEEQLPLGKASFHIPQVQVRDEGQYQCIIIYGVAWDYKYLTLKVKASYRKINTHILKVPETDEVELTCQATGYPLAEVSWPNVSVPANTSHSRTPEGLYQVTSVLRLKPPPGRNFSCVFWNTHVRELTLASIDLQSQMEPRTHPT

T3: human PD-L2-HIS (human, UniProt Q9BQ51)
T3 chain: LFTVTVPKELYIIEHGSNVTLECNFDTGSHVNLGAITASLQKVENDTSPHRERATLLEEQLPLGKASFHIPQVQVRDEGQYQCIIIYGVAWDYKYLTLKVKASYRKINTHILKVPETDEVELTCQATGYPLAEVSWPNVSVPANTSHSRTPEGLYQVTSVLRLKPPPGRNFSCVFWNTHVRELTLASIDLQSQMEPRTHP


Columns and labels:
mouse PD-L1-Fc [1] = biological target: T4, mouse PD-L1-Fc (mouse, UniProt Q9EP73); experiment: BLI, bivalent
T4 sequence (Q9EP73 19-239): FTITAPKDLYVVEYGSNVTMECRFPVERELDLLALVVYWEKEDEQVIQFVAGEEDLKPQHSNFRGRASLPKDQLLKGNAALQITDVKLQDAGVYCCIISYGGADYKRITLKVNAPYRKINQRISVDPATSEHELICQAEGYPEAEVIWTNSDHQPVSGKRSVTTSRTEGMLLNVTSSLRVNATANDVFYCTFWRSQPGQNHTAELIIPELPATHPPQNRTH

human PD1-Fc = human PD1-Fc (human, UniProt Q15116); experiment: BLI, bivalent
human PD1-Fc, sequence (Q15116 25-170): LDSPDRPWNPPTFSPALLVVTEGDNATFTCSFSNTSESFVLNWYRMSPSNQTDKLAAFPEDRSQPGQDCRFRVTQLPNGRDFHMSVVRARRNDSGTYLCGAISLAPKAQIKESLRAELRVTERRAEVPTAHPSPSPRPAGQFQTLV

mouse PD-L2-Fc = biological target: T1, mouse PD-L2-Fc; experiment: BLI, bivalent
human PD-L2-Fc [2] = biological target: T2, human PD-L2-Fc; experiment: BLI, bivalent
human PD-L1-Fc [3] = biological target: human PD-L1-Fc (human); experiment: BLI
human PD-L1-Fc (human), sequence (chain, as listed by the source): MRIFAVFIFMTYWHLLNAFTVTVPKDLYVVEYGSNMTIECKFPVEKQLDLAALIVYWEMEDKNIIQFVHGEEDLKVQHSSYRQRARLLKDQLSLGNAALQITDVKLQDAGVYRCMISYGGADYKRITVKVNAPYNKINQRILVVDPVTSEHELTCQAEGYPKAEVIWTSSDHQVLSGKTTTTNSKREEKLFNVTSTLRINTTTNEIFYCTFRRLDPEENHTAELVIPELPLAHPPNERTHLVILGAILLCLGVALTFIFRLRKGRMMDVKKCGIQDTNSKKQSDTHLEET

mouse PD-L1-Fc [4] = biological target: T4, mouse PD-L1-Fc; experiment: BLI, bivalent; remark: listed apart in the source
human PD-L2-HIS = biological target: T3, human PD-L2-HIS; experiment: BLI, monovalent
human PD-L2-Fc [5] = biological target: T2, human PD-L2-Fc; experiment: BLI, monovalent
human PD-L1-Fc [6] = biological target: human PD-L1-Fc (human); experiment: BLI, bivalent

Row | Binder | binding result (mouse PD-L1-Fc [1]) | binding result (human PD1-Fc) | binding result (mouse PD-L2-Fc) | binding result (human PD-L2-Fc [2]) | Kd (human PD-L1-Fc [3]) [nM] | Kd (mouse PD-L1-Fc [4]) [nM] | binding result (human PD-L2-HIS) | binding result (human PD-L2-Fc [5]) | Kd (human PD-L1-Fc [6]) [nM]
1 | ADI-16403 (antibody, V domains shown) VH: EVQLVESGGGLVQPGGSLRLSCAASGFTFSSYWMSWVRQAPGKGLEWVANIKSDGSEKYYVDSVKGRFTISRDNAKNSLYLQMNSLRAEDTAVYYCARVTYWADYMDVWGKGTTVTVSS VL: DIQMTQSPSTLSASVGDRVTITCRASQSISSWLAWYQQKPGKAPKLLIYKASSLESGVPSRFSGSGSGTEFTLTISSLQPDDFATYYCQQSGSLPPTFGGGTKVEIK | no binding | no binding | no binding | no binding | – | – | – | – | –
2 | ADI-20227 (antibody, V domains shown) VH: QVQLQESGPGLVKPSQTLSLTCTVSGGSIVSGGLYWSWIRQHPGKGLEWIGYIYYAGVTYYNPSLKSRVTISVDTSKNQFSLKLSSVTAADTAVYYCARGPRMGLAGMDVWGQGTTVTVSS VL: DIQMTQSPSSVSASVGDRVTITCRASQGISSWLAWYQQKPGKAPKLLIYAASSLQSGVPSRFSGSGSGTDFTLTISSLQPEDFATYYCQQANSFPITFGGGTKVEIK | – | no binding | no binding | no binding | 0.179 | 0.101 | no binding | – | –
3 | ADI-20227 Fab (antibody, V domains shown) VH: QVQLQESGPGLVKPSQTLSLTCTVSGGSIVSGGLYWSWIRQHPGKGLEWIGYIYYAGVTYYNPSLKSRVTISVDTSKNQFSLKLSSVTAADTAVYYCARGPRMGLAGMDVWGQGTTVTVSS VL: DIQMTQSPSSVSASVGDRVTITCRASQGISSWLAWYQQKPGKAPKLLIYAASSLQSGVPSRFSGSGSGTDFTLTISSLQPEDFATYYCQQANSFPITFGGGTKVEIK | – | – | – | – | – | – | – | no binding | –
4 | ADI-20803 (antibody, V domains shown) VH: QVQLVQSGAEVKKPGSSVKVSCKASGGTFRLYAISWVRQAPGQGLEWMGSIIPGFGSANYAQKFQGRVTITADESTSTAYMELSSLRSEDTAVYYCARDGGGGTSAYSFDPWGQGTLVTVSS VL: EIVLTQSPATLSLSPGERATLSCRASQSVSSYLAWYQQKPGQAPRLLIYDASNRATGIPARFSGSGSGTDFTLTISSLEPEDFAVYYCQQSINFPYTFGGGTKVEIK | – | no binding | no binding | no binding | – | – | no binding | – | 0.188
5 | ADI-20803 Fab (antibody, V domains shown) VH: QVQLVQSGAEVKKPGSSVKVSCKASGGTFRLYAISWVRQAPGQGLEWMGSIIPGFGSANYAQKFQGRVTITADESTSTAYMELSSLRSEDTAVYYCARDGGGGTSAYSFDPWGQGTLVTVSS VL: EIVLTQSPATLSLSPGERATLSCRASQSVSSYLAWYQQKPGQAPRLLIYDASNRATGIPARFSGSGSGTDFTLTISSLEPEDFAVYYCQQSINFPYTFGGGTKVEIK | – | – | – | – | – | – | – | no binding | –
